Our source for the koff values is patent US20240301068A1 (BEIJING HANMI PHARMACEUTICAL, published 2024).

Residue numbers refer to the chain shown, from its start.

To fix the notation:
B1: humanized anti-human PD-L1 monoclonal antibody VLS9-VHS1 (antibody, human IgG1, kappa, V domains shown)
VH: QVQLVQSGAEVKKPGSSVKVSCTASGFNIEDTYIHWVRQAPGQGLEWMGRIDPANGNTKYDPKFQGRVTITADESTSTAYMELSSLRSEDTAVYYCGRGLGAWFAYWGQGTLVTVSS
VL: DIQMTQSPSSLSASVGDRVTITCKASQDVHTAVAWYQQKPGKAPKLLIYSASNRYTGVPSRFSGSGSGTDFTFTISSLQPEDIATYYCQQHYITPLTFGQGTKLEIKR
B2: humanized anti-human PD-L1 monoclonal antibody VLS10-VHS2 (antibody, human IgG1, kappa, V domains shown)
VH: B1 VH with V68A
VL: B1 VL with Y36I, Q37H
B3: humanized anti-human PD-L1 monoclonal antibody VLS9-VHS7 (antibody, human IgG1, kappa, V domains shown)
VH: B1 VH with E74T, S77N
VL: B1 VL
B4: humanized anti-human PD-L1 monoclonal antibody VLS10-VHS5 (antibody, human IgG1, kappa, V domains shown)
VH: B1 VH with V68A, E74T
VL: B1 VL with Y36I, Q37H
B5: humanized anti-human PD-L1 monoclonal antibody VLS9-VHS2 (antibody, human IgG1, kappa, V domains shown)
VH: B1 VH with V68A
VL: B1 VL
B6: humanized anti-human PD-L1 monoclonal antibody VLS9-VHS4 (antibody, human IgG1, kappa, V domains shown)
VH: B1 VH with S77N
VL: B1 VL
B7: humanized anti-human PD-L1 monoclonal antibody VLS9-VHS6 (antibody, human IgG1, kappa, V domains shown)
VH: B1 VH with V68A, S77N
VL: B1 VL
B8: humanized anti-human PD-L1 monoclonal antibody VLS15-VHS11 (antibody, human IgG1, kappa, V domains shown)
VH: B1 VH with Q1E, T23K, S77N
VL: B1 VL with Y36I, A43S
B9: humanized anti-human PD-L1 monoclonal antibody VLS9-VHS8 (antibody, human IgG1, kappa, V domains shown)
VH: B1 VH with V68A, E74T, S77N
VL: B1 VL
B10: humanized anti-human PD-L1 monoclonal antibody VLS9-VHS5 (antibody, human IgG1, kappa, V domains shown)
VH: B1 VH with V68A, E74T
VL: B1 VL
B11: humanized anti-human PD-L1 monoclonal antibody VLS10-VHS1 (antibody, human IgG1, kappa, V domains shown)
VH: B1 VH
VL: B1 VL with Y36I, Q37H
B12: humanized anti-human PD-L1 monoclonal antibody VLS10-VHS6 (antibody, human IgG1, kappa, V domains shown)
VH: B1 VH with V68A, S77N
VL: B1 VL with Y36I, Q37H
B13: humanized anti-human PD-L1 monoclonal antibody VLS10-VHS3 (antibody, human IgG1, kappa, V domains shown)
VH: B1 VH with E74T
VL: B1 VL with Y36I, Q37H
B14: humanized anti-human PD-L1 monoclonal antibody VLS9-VHS3 (antibody, human IgG1, kappa, V domains shown)
VH: B1 VH with E74T
VL: B1 VL
B15: humanized anti-human PD-L1 monoclonal antibody VLS10-VHS4 (antibody, human IgG1, kappa, V domains shown)
VH: B1 VH with S77N
VL: B1 VL with Y36I, Q37H
B16: humanized anti-human PD-L1 monoclonal antibody VLS10-VHS8 (antibody, human IgG1, kappa, V domains shown)
VH: B1 VH with V68A, E74T, S77N
VL: B1 VL with Y36I, Q37H
B17: humanized anti-human PD-L1 monoclonal antibody VLS15-VHS13 (antibody, human IgG1, kappa, V domains shown)
VH: B1 VH with Q1E, T23K, M48I, V68A, S77N
VL: B1 VL with Y36I, A43S

The target in the experiment is recombinant human PD-L1 (Sino Biological Inc.) (human, UniProt Q9NZQ7 19-239). In words: affinity determination (dissociation constant), method not stated.
recombinant human PD-L1 (Sino Biological Inc.), sequence (Q9NZQ7 19-239 limits assumed): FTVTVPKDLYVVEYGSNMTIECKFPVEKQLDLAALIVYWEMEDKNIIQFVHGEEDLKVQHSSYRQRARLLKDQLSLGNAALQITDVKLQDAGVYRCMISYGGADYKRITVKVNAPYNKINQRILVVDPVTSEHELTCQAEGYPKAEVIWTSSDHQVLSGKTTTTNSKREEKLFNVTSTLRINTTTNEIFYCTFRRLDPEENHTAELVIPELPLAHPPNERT
Broadly, the koff is the first-order rate constant of dissociation. With B1, the koff worked out at 0.00597 s⁻¹.
Regarding B2, the koff is 0.00325 s⁻¹.
For the molecule B3, the koff stood at 0.0058 s⁻¹.
As for B4, the figure is 0.000994 s⁻¹.
As to B5, the koff turned out to be 0.00599 s⁻¹.
Turning to B6, the koff stood at 0.00544 s⁻¹.
Take B7: the koff is 0.00618 s⁻¹.
For the molecule B8, the koff amounted to 0.000841 s⁻¹.
Take B9: the koff came to 0.00532 s⁻¹.
As for B10, the figure is 0.00438 s⁻¹.
On to B11, for which the koff was 0.00424 s⁻¹.
Turning to B12, the koff amounted to 0.00121 s⁻¹.
Under B13 stands 0.00121 s⁻¹; under B14, 0.0052 s⁻¹.
Turning to B15, the koff is 0.00156 s⁻¹.
Turning to B16, the koff was found to be 0.000652 s⁻¹.
Under B17 stands 0.000763 s⁻¹.
